The record followed here is PMC11096372.

The data set addresses Cas8b;Cas7b;Cas5b;Cas6b;Cas11b (Synechocystis sp. PCC 6714;Synechocystis sp. PCC 6714;Synechocystis sp. PCC 6714;Synechocystis sp. PCC 6714;Synechocystis sp. PCC 6714) (UniProt A0A068N831+A0A068N458+A0A068N1Y0+A0A068N831). Nature of the data set: EMSA. Particulars: crRNA-loaded Cascade; EMSA: 10 nM labeled DNA, Cascade 0-200 nM, 20 mM HEPES pH 7.5, 100 mM NaCl, 25 C, 1 h; 6% acrylamide gel, 0.5x TBE, cold room; Hill fit. A general note: A gel shift assay detects complexes by their altered migration in electrophoresis.

For orientation: Kd means the free concentration of one partner at which half of the binding sites on the other are occupied at equilibrium, for simple one-to-one binding. A high value points to a looser complex. For “TAATACGACTCACTATAGGTCGCGGATCCACATTTATCACCGTGTCCCCAATCTGGATATTTTGTGTCTCGAGCACCACCGCTGAGCAATAACTAGC (double strand) [ACA-PAM 97 bp (synPAM-9)]”, the dissociation constant (Kd) amounted to 56.2 nM.

The sequence “TAATACGACTCACTATAGGTCGCGGATCCACCTTTATCACCGTGTCCCCAATCTGGATATTTTGTGTCTCGAGCACCACCGCTGAGCAATAACTAGC (double strand) [ACC-PAM 97 bp (synPAM-11)]” showed a Kd of 58.2 nM. Under “TAATACGACTCACTATAGGTCGCGGATCCACGTTTATCACCGTGTCCCCAATCTGGATATTTTGTGTCTCGAGCACCACCGCTGAGCAATAACTAGC (double strand) [ACG-PAM 97 bp (synPAM-10)]” stands 20.6 nM. With “TAATACGACTCACTATAGGTCGCGGATCCACTTTTATCACCGTGTCCCCAATCTGGATATTTTGTGTCTCGAGCACCACCGCTGAGCAATAACTAGC (double strand) [ACT-PAM 97 bp (synPAM-12)]” the figure was 140 nM; with “TAATACGACTCACTATAGGTCGCGGATCCATATTTATCACCGTGTCCCCAATCTGGATATTTTGTGTCTCGAGCACCACCGCTGAGCAATAACTAGC (double strand) [ATA-PAM 97 bp (synPAM-13)]”, 24 nM; with “TAATACGACTCACTATAGGTCGCGGATCCATCTTTATCACCGTGTCCCCAATCTGGATATTTTGTGTCTCGAGCACCACCGCTGAGCAATAACTAGC (double strand) [ATC-PAM 97 bp (synPAM-15)]”, 47.7 nM.

In the case of “TAATACGACTCACTATAGGTCGCGGATCCATGTTTATCACCGTGTCCCCAATCTGGATATTTTGTGTCTCGAGCACCACCGCTGAGCAATAACTAGC (double strand) [ATG-PAM 97 bp (synPAM-14)]”, the dissociation constant (Kd) was determined as 18 nM. “TAATACGACTCACTATAGGTCGCGGATCCATTTTTATCACCGTGTCCCCAATCTGGATATTTTGTGTCTCGAGCACCACCGCTGAGCAATAACTAGC (double strand) [ATT-PAM 97 bp (synPAM-16)]” showed a Kd of 59.7 nM.
